1 protein from publication doi:10.1101/2024.06.25.600654 (bioRxiv, 2024) can be followed below.

The series deals with the molecule itself. Kind of series: SEC-SAXS. (In general: SEC sorts molecules by how far they enter the pores of the column.)

B1: ParB1 from Vibrio cholerae (vcParB1) (natural protein)
chain: MTKRGLGKGLDALLATSSLAREKQQVASLSQSMSAEGELADLSISNLKPGIYQPRKDLSPEALEELAASIQSQGIIQPIVVRHLPTGGYEIIAGERRWRAAKQAGLKQVPCLIKQVEDRGAIAMALIENIQREDLNAMEEAQALERLQNEFNLTHQQVAEVIGKSRTTVTNLLRLNQLSDDVKRLLETKQLEMGHARALLMLEGEQQVEIAQQVAKKQLTVRQTEQLVKKCLSDPSDAKNVSEDLEIQQLSQNLSEKLAAKVSIVRTPNGKSKVTISLDEPHKLELLIAKLQN
Broadly, the stoichiometry N is the number of molecules, sites or subunits per partner or assembly. For the protein B1, the “stoichiometry N” value came to 2.
